Experimental data as given in the DeepSol protein solubility set.

assay: soluble on expression in E. coli; label from the status in PepcDB or PDB records

Q: With “MLCEIECRALSTAHTRLIHDFEPRDALTYLEGKNIFTEDHSELISKMSTRLERIANFLRIYRRQASELGPLIDFFNYNNQSHLADFLEDYIDFAINEPDLLRPVVIAPQFSRQMLDRKLLLGNVPKQMTCYIREYHVDRVIKKLDEMCDLDSFFLFLHGRAGSGKSVIASQALSKSDQLIGINYDSIVWLKDSGTAPKSTFDLFTDILLMLKSEDDLLNFPSVEHVTSVVLKRMICNALIDRPNTLFVFDDVVQEETIRWAQELRLRCLVTTRDVEISNAASQTCEFIEVTSLEIDECYDFLEAYGMPMPVGEKEEDVLNKTIELSSGNPATLMMFFKSCEPKTFEKMAQLNNKLESRGLVGVECITPYSYKSLAMALQRCVEVLSDEDRSALAFAVVMPPGVDIPVKLWSCVIPVDICSNEEEQLDDEVADRLKRLSKRGALLSGKRMPVLTFKIDHIIHMFLKHVVDAQTIANGISILEQRLLEIGNNNVSVPERHIPSHFQKFRRSSASEMYPKTTEETVIRPEDFPKFMQLHQKFYDSLKNFACC” as the sequence, how does the “soluble on expression in E. coli” value read?
A: soluble

Q: For “MAVYTDITEDELRNFLTQYDVGSLTSYKGIAEGVENSNFLLHTTKDPLILTLYEKRVEKNDLPFFLGLMQHLAAKGLSCPLPLPRKDGELLGELSGRPAALISFLEGMWLRKPEAKHCREVGKALAAMHLASEGFEIKRPNALSVDGWKVLWDKSEERADEVEKGLREEIRPEIDYLAAHWPKDLPAGVIHADLFQDNVFFLGDELSGLIDFYFACNDLLAYDVSICLNAWCFEKDGAYNVTKGKALLEGYQSVRPLSEAELEALPLLSRGSALRFFLTRLYDWLTTPAGALVVKKDPLEYLRKLRFHRTIANVAEYGLAGE”, which “soluble on expression in E. coli” value is on record?
A: soluble

Q: Which “soluble on expression in E. coli” value does the source give for “MSTAINSVEMSLSADEIRERVRAAGVVGAGGAGFPAHVKLQAQVEIFLVNAAECEPMLKVDQQLMWQQAARLVRGVQYAMTATGAREGVIALKEKYRRAIDALTPLLPDGIRLHILPDVYPAGDEVLTIWMATGRRVAPAALPASVGVVVNNVQTVLNIARAVEQRFPVTRRTLTVNGAVARPLTVTVPIGMSLREVLALAGGATVDDPGFINGGPMMGGLITSLDNPVTKTTGGLLVLPKSHPLIQRRMQDERTVLSVARTVCEQCRLCTDLCPRHLIGHELSPHLLVRAVNFHQAATPQLLLSALTCSECNVCESVACPVGISPMRINRMLKRELRAQNQRYEGPLNPADEMAKYRLVPVKRLIAKLGLSPWYQEAPLVEEEPSVEKVTLQLRQHIGASAVANVAVGERVTRGQCVADVPPGALGAPIHASIDGVVSAISEQAITVVRGLEHHHHHH” here?
A: soluble

Q: Which “soluble on expression in E. coli” value does the source give for “MGSDKIHHHHHHMTKHQNFIETKEYKRFAEFCDACIKYQYIGICYGQPGVGKTLSSRYYTNWNTIEKQVNHRGWEDLASKTTDDILSVNKIFYTAPAEKQTRLSNDLYSISASIDLGQKLHIVNKYGHDHSKHYSDMFKYIDLIIVDEIDRLKVQHLEQLRAIYDEHNLAMIFIGMPGIEKKLSRYPQLYSRIGFAHEFDNLSKDETHHILEYKWQDLGFDLKLEDFTDYEAITTIIKITKGNFRLIHRLFAQIDRIMDINGLDKISTEVVETARDSLVIGIR” here?
A: not soluble

Q: For “GAMEKFKTLLYDIPIECMEVSEEIISYAKLQLGKKLNDSIYVSLTDHINFAIQRNQKGLDIKNALLWETKRLYKDEFAIGKEALVMVKNKTGVSLPEDEAGFIALHIVNAELNEEMPNIINITKVMEEILSIVKYHFKIEFNEESLHYYRFVTDLKFFAQRLFNGTHMESEDDFLLDTVKEKYHRAYECTKKIQTYIEREYEHKLTSDELLYLTIDIERVVKQA”, which “soluble on expression in E. coli” value is on record?
A: soluble

Q: For “GSHMVVELAYTDPDRAVDWLVRVFGFRLLLRQPAIGTIRHADLDTGGGIVMVRRTGEPYTVSCAGGHTCKQVIVWVSDVDEHFMRSTAAGADIVQPLQDKPWGLRQYLVRDLEGHLWEFTRHLRDVPPREWGAVAMT”, which “soluble on expression in E. coli” value is on record?
A: soluble

Q: Which “soluble on expression in E. coli” value does the source give for “MAHHHHHHMGLLNTKPCSLIPAKEAFEREKKIYDKAILSFDGVNGYDVYNCSVPFTYDGKTYIFGRVEKKDEWVHSNSILFEKVGENRYRRHPTSITYNLEDPFVVKIHGEMVLGGTHVTKNGGKVSDYRCEFYHGTPLNLKYFSSGPSKMKDIRLVELADGKIGVFTHFRTEGSCLTGFATIDKIEDLTVEVINSAKLINHRPFGDAWGGPSQVYLLSSGLLGCISHHGYLLDQKDDIQLRIYACTSFVFDPATYDVYNFKIIGTKGCFPPCEPKLPHLADCAFVSGIEMRDDGKCNLYSGIGDVAEGCIVIDYPFEGYGKIVSDVAF” here?
A: soluble

Q: With “MDFYYLPGSAPCRAVQMTAAAVGVELNLKLTNLMAGEHMKPEFLKLNPQHCIPTLVDEDGFVLWESRAIQIYLVEKYGAHDADLAERLYPSDPRRRAVVHQRLFFDVAVLYQRFAEYYEPQIFGQKVPVGDPGRLRSMEQALEFLNTFLEGEQYVAGGDDPTIADLSILATIATYEVAGYDLRRYENVQRWYERTSAIVPGADKNVEGAKVFGRYFTQK” as the sequence, how does the “soluble on expression in E. coli” value read?
A: soluble

Q: For “MIITEKRHELILEELSHKDFLTLQELIDRTGCSASTIRRDLSKLQQLGKLQRVHGGAMLKENRMIEANLTEKLATNLDEKKMIAKIAANQINDNECLFIDAGSSTLELIKYIQAKDIIVVTNGLTHVEALLKKGIKTIMLGGQVKENTLATIGSSAMEILRRYCFDKAFIGMNGLDIELGLTTPDEQEALVKQTAMSLANQSFVLIDHSKFNKVYFARVPLLESTTIITSEKALNQESLKEYQQKYHFIGGTLLEHHHHHH”, which “soluble on expression in E. coli” value is on record?
A: soluble

Q: Which “soluble on expression in E. coli” value does the source give for “MTRLTLALDVMGGDFGPSVTVPAALQALNANSQLTLLLVGNPDIITPLLAKADFEQRSRLQIIPAQSVIASDARPSQAIRASRGTSMRVALELVKEGRAEACVSAGNTGALMGLAKLLLKPLEGIERPALVTVLPHQQKGKTVVLDLGANVDCDSTMLVQFAVMGAVLAEEVVGIKNPRVALLNIGEEETKGLDSIREASLMLKTVPTINYIGYLEANELLTGKTDVLVCDGFTGNVTLKTMEGVVRMFLSLLKSQGEGKKRSWWLLLLKRWLQKSLTRRFSHLNPDQYNGACLLGLRGTVIKSHGAANQRAFAVAIEQAVQAVQRQVPQRIAARLESVYPAGFEPLDDGKGVNLRAHR” here?
A: not soluble

Q: Which “soluble on expression in E. coli” value does the source give for “SQLPPGKPEIFKCRSPNKETFTCWWRPGTDGGLPTNYSLTYHREGETLMHECPDYITGGPNSCHFGKQYTSMWRTYIMMVNATNQMGSSFSDELYVDVTYIVQPDPPLELAVEVKQPEDRKPYLWIKWSPPTLIDLKTGWFTLLYEIRLKPEKAAEWEIHFAGQQTEFKILSLHPGQKYLVQVRCKPDHGYWSAWSPATFIQIPSDFTMND” here?
A: soluble

Q: For “GPGSMAKWNALSAEIEAARASGDHTKLLAHVHVGLQMLQEIGATNAPIQCESLLCMEASQAHYKMMQYDEALQCAERACESLLRGCKAELQDKAQIAEIEVFMGFVLCKQGGHSAAVEAQELLQKVLHWIDVDAKSAMPMQAVAAVNLRRSVLTGLGLSTTVQATTLASKGETAEAKVLYAKGLDTLIEALNQHIDENDVELVKMTLEAILTSFEGLDDVSQAVATCRKYISWCRRHDDASGVADGESMLTALCARQKIENPLEAEKAKETEEATK”, which “soluble on expression in E. coli” value is on record?
A: soluble

Q: Which “soluble on expression in E. coli” value does the source give for “MVQREKARDNFEGGCLAELIGSPRDWKCFLAVPDPLLGVQHWLHLWRPQTKDGNSLHRHGDQAWGKHRRQNSLKSPALSGHSIDYHFYPRLRCGMLIGPDKQAVASGLEVLVTSSTKILGQLFPDAAHFLEEASEFKAE” here?
A: soluble

Q: For “MAHHHHHHMGTLEAQTQGPGSMTAQSGLLQGKRGLILGVANNRSIAWGIAKAAREAGAELAFTYQGDALKKRVEPLAEELGAFVAGHCDVADAASIDAVFETLEKKWGKLDFLVHAIGFSDKDELTGRYIDTSEANFTNTMLISVYSLTAVSRRAEKLMADGGSILTLTYYGAEKVMPNYNVMGVAKAALEASVKYLAVDLGPQNIRVNAISAGPIKTLAASGIGDFRYILKWNEYNAPLRRTVTIDEVGDVGLYFLSDLSRSVTGEVHHADSGYHVIGMKAVDAPDISVVKD”, which “soluble on expression in E. coli” value is on record?
A: soluble

Q: For “MLEADDQGCIEEQGVEDSANEDSVDAKPDRSSFVPSLFSKKKKNVTMRSIKTTRDRVPTYQYNMNFEKLGKCIIINNKNFDKVTGMGVRNGTDKDAEALFKCFRSLGFDVIVYNDCSCAKMQDLLKKASEEDHTNAACFACILLSHGEENVIYGKDGVTPIKDLTAHFRGDRSKTLLEKPKLFFIQACRGTELDDGIQADSGPINDTDANPRYKIPVEADFLFAYSTVPGYYSWRSPGRGSWFVQALCSILEEHGKDLEIMQILTRVNDRVARHFESQSDDPHFHEKKQIPCVVSMLTKELYFSQ”, which “soluble on expression in E. coli” value is on record?
A: soluble

Q: For “MKPATYNTEAFDEWIRSRFVELNSQLEQLYYQQTDRANVQEVGTELKHTLESEGRELVKALLDEGNTDEGFDSAFDLLGNVGLYMAACRRHEITEPTRETTSPLLEASALAMHIGASIGVTPRFATAHLTTHNRAHNGIYKRFTDLPDEKLFVDYNTKGILAYKRASDALLKIQPLGISHPISHDLLRVTKQALQDVIESNQQLFNRLDTDRFFYCVRPYYKPYRVGSVVYRGANAGDFAGINVIDLTLGLCFANEASYSQMLVDKFLYMMPEDQQILRECMRRPNLMDDFLQAKGCIHQDWYQENLKLFIEVCELHGQTAIQHHNELVTKYIAEPSVSMEQQHLAKVTASGPPLHVLLASLERLRDRRAAVLRDDIRTRYYDLKKLKDSLRAAALEHHHHHH”, which “soluble on expression in E. coli” value is on record?
A: soluble

Q: For “GYQALEKYSRDLTALARAGKLDPVIGRDTEIRRAIQILSRRTKNNPILLGDPGVGKTAIVEGLAIKIVQGDVPDSLKGRKLVSLDLSSLIAGAKYRGDFEERLKSILKEVQDAEGQVVMFIDEIHTVVGAGAVAEGALDAGNILKPMLARGELRCIGATTVSEYRQFIEKDKALERRFQQILVEQPS”, which “soluble on expression in E. coli” value is on record?
A: soluble

Q: With “MGSDKIHHHHHHVSKIGIPRTLAYFIYFPLWKTFFEELGHEVVLSPATSKAILDRGVKEAVNDACIPIKLYHGHAAALAGKVDYIFCPRLVSVRSHGDFGTETFCPKFLGLPDMLRLAMDDLPEIIDVRVDLKQGKDGLWQLSQEIGKGLGNSREEIKRAFNRAREQQRQYNRLLYQEMLPLEALKIIEQKNPIPKKEKSNENYDLQVAVVGYPYLLYDAYINAGLLAILEKEKVKVYTQDIISDRKMNQQAKTLPKSTFWYFSNRVIYGALHFMQRPEIEGVIHLTAFACGPDSMVDRLLEIESRRRGNRPYLSIAVDEHTGEAGVRTRIEAFVDMLRYRRERK” as the sequence, how does the “soluble on expression in E. coli” value read?
A: not soluble

Q: With “MGSDKIHHHHHHASEEDPWESINRPIFTFNDTLDTYALKPLAQGYQKVTPNFVQDGVHNFFNNLGDVKNLANNLLQAKFHNAGVDTSRLLFNSTFGLAGLIDVATPMGLQRNDEDFGQTLGYWGVGSGPYVMLPFLGPSTLRDAPAKIPDIYVSPYHYMDDVRARNVMFGINTVDTRANLLKSEKLISGDKYIFIRNAYLQNREFKVKDGEVEDDF” as the sequence, how does the “soluble on expression in E. coli” value read?
A: not soluble

Q: For “MDRTLYQKQMLDLVKDSKLATKLENSIFKWTNDYMETNITPPFMFENFYQDKFSDIIKHLNIKNNPYLLEAIKTGKIKPENIAFLKPEEIYPEKFEAILNKRKLEKAIKDNQATTDAFKCPRCKKRKAKIDQKQIRAGDEPMTTFVTCVECGNVQKF”, which “soluble on expression in E. coli” value is on record?
A: not soluble

Q: With “MMRCPECSTEGWRVLPLTVGAHVKEGLWSKIKGDFYFCSLESCEVVYFNEQTVFRKGELKTRVGVKEREEPKPVCYCNRVTEKMLLEAAEKFGKEKAVEITGAGKGKWCVVTNPSGRCCHWHLERLGFPV” as the sequence, how does the “soluble on expression in E. coli” value read?
A: soluble
